Laboratory results: article doi:10.1101/2024.10.04.616518

What was measured:
[1] = target: ixochymostatin (Ixodes scapularis); test: SPR
[2] = target: bovine pancreatic chymotrypsin (bovine); test: enzyme inhibition kinetics

Sequence of ixochymostatin (Ixodes scapularis) (B7PCV3 21-91): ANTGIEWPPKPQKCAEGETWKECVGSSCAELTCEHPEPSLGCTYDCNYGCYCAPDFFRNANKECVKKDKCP
Sequence of ixochymostatin (natural protein) (B7PCV3 21-91): as above

Substance	Kd [1]	koff [1]	kon [1]	Ki [2]	Ki^app (Morrison equation) [2]	apparent Ki (Ki^app), from IC50 against protease concentration [2]
bovine pancreatic chymotrypsin (enzyme)	0.076 nM	1.2e-05 s⁻¹	160000 M⁻¹ s⁻¹	–	–	–
ixochymostatin (natural protein)	–	–	–	0.14 nM	0.81 nM	16 nM
